Reference: patent US20080026996A1, “Selective Vpac2 Receptor Reptide Agonists” (ELI LILLY AND COMPANY, priority 2004, published 2008)
Where no end group is shown, it is not given here. [ ]: non-standard residue; d: D form. The star is where a group is joined. hArg = N=C(N)NCCCC[C@H](N)C(=O)O; Nle = CCCC[C@H](N)C(=O)O; Orn = NCCC[C@H](N)C(=O)O; Hexanoyl = CCCCCC(=O)*; Aib = CC(C)(N)C(=O)O

T1: human VPAC2 (Homo sapiens, UniProt P41587)
T1 construct: expressed in transfected cells
T1 sequence (P41587 24-438): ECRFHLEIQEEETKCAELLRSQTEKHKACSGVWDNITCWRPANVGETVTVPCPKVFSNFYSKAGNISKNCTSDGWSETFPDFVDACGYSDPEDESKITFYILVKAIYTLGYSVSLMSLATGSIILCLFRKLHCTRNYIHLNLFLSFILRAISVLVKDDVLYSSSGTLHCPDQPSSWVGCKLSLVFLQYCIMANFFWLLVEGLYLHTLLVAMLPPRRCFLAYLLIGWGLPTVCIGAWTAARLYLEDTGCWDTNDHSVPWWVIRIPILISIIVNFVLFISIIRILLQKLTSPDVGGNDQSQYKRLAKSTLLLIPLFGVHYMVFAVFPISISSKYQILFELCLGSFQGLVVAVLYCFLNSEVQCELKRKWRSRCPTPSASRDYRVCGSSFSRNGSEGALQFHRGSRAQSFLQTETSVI

T2: human VPAC1 (Homo sapiens, UniProt P32241)
T2 sequence (P32241 31-457): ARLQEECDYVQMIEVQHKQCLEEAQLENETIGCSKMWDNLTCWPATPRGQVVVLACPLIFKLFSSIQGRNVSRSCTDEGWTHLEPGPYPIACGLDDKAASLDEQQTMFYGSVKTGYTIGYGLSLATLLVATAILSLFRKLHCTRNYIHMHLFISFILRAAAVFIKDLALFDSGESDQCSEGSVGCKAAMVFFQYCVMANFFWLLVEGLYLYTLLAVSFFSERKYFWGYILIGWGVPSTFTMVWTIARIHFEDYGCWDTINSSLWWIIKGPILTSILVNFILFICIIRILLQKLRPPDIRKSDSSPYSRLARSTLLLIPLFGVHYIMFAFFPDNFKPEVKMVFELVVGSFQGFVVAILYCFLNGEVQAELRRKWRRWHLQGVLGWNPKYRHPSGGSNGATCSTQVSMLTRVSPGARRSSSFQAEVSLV

T3: rat VPAC2 receptor (Rattus norvegicus, UniProt P35000)
T3 sequence (P35000 23-437): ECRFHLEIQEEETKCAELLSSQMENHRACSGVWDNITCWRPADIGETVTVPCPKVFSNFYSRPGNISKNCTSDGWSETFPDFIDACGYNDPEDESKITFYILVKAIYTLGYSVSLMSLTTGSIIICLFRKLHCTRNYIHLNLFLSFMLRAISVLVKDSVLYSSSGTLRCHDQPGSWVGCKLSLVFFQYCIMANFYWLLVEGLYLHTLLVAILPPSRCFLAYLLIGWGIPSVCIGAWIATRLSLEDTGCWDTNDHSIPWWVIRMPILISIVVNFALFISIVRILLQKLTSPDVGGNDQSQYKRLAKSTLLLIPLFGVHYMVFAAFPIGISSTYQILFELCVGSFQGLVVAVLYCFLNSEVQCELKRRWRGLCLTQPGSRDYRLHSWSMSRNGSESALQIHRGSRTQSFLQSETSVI

T4: rat VPAC1 receptor (rat, UniProt P30083 31-459)
T4 sequence (looked up): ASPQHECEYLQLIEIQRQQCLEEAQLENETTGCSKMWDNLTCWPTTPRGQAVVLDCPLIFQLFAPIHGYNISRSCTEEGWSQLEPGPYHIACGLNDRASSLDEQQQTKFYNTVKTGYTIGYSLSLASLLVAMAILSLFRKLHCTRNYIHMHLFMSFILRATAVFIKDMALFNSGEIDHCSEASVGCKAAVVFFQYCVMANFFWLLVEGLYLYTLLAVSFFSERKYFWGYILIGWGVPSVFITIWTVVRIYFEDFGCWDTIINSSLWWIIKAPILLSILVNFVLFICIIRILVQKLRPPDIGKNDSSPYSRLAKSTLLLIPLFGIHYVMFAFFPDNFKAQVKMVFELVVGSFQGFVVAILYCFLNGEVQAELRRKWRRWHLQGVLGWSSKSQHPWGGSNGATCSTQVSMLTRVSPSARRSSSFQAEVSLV

T5: rat VPAC2 receptor (rat, UniProt P35000 23-437)
T5 sequence (looked up): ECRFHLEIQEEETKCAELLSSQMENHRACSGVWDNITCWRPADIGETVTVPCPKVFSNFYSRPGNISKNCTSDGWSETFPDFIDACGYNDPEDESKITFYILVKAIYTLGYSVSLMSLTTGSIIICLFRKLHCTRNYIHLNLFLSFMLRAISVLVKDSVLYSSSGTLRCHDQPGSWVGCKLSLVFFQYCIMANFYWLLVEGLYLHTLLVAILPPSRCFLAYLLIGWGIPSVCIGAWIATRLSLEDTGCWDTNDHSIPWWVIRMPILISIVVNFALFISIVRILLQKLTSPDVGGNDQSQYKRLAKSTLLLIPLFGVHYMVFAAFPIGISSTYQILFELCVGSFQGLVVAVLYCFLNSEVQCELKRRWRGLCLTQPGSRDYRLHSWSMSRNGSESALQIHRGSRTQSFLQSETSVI

T6: human VPAC2 receptor (human, UniProt P41587 24-438)
T6 sequence (looked up): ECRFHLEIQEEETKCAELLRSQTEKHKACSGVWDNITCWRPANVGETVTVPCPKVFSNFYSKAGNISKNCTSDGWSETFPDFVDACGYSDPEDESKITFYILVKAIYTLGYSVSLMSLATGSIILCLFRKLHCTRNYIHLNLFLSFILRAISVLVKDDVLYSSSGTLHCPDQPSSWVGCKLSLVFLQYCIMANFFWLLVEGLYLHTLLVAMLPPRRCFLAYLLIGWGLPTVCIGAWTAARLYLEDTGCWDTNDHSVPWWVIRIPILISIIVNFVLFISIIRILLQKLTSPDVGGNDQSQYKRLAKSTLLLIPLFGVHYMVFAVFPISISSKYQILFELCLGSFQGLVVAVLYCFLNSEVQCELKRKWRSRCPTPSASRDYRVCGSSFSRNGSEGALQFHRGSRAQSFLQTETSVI


Legend:
human VPAC2 [1] = target: T1, human VPAC2; assay: Filter binding assay, membranes of stable VPAC2 cell line, 125I-labeled VIP tracer (Table 2); conditions: read-out: Human VPAC2 Receptor Binding
Method in brief: (§1)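 Membranes 2.5 μg/well; tracer ~40000 cpm; buffer 25 mM HEPES pH 7.4, 0.5% protease-free BSA; 1 h incubation, shaking. Glass-fibre filtration (0.5% polyethyleneamine presoak, 0.2% BSA block), 3× HEPES wash, dry 1 h at 60° C, scintillation count.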

human VPAC1 = target: T2, human VPAC1; assay: Filter binding assay, membranes of cells transiently transfected with human VPAC1, 125I-labeled VIP tracer (Table 2); parameters: expressed in transfected cells; conditions: read-out: Human VPAC1 Receptor Binding
Method in brief: as §1

human VPAC2 [2] = target: T1, human VPAC2; assay: Alpha screen cAMP in vitro potency, human VPAC2 receptor; format: cell-based; conditions: cAMP generation; single result from two analyses performed in a single run; read-out: Human VPAC2 Receptor: Alpha Screen EC50
Method in brief: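 Cells were detached with enzyme-free dissociation buffer, washed into stimulation buffer and used at 50,000 cells per data point. Stimuli and AlphaScreen acceptor beads were added for 60 minutes, then lysis buffer with donor beads for 60 to 120 minutes; the AlphaScreen signal reports intracellular cAMP.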

rat VPAC2 receptor [3] = target: T3, rat VPAC2 receptor; assay: DiscoveRx in vitro potency, CHO-PO cells transiently transfected with rat VPAC 2 receptor DNA; format: cell-based; parameters: expressed in transfected cells; host or cells: CHO-PO, transient
Protocol: Also, the cells are washed twice. […] The stimuli are present for 30 minutes. Then, the assay buffer is gently removed.

[4] = Rat serum stability studies (remaining active peptide by DiscoveRx cAMP on CHO-VPAC2 cells); format: in vitro ADME
Method in brief: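 EC50 from a DiscoveRx cAMP read-out on CHO-VPAC2 cells indexes how much peptide stays active after 18 h in rat serum at 37° C without aprotinin, against an aprotinin-protected 4° C aliquot.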

rat VPAC1 receptor = target: T4, rat VPAC1 receptor; assay: cell-based or functional assay
rat VPAC2 receptor [5] = target: T5, rat VPAC2 receptor; assay: cell-based or functional assay
human VPAC2 receptor = target: T6, human VPAC2 receptor; assay: cell-based or functional assay

Row | Molecule | IC50 (human VPAC2 [1]) | IC50 (human VPAC1) | EC50 (human VPAC2 [2]) | EC50 (rat VPAC2 receptor [3]) | Rat Serum Stability (estimated purity in % after 18 hours) [4] | Rat Serum Stability (Estimated purity in % after 72 hours) [4] | EC50 cAMP, DiscoveRx (rat VPAC1 receptor) | EC50 cAMP, DiscoveRx (rat VPAC2 receptor [5]) | EC50 cAMP, Alpha Screen (human VPAC2 receptor)
1 | Hexanoyl-HSDAVFTDNYTRLR[Aib]QKAA[Aib]KYLQSIKNKRYGGPSSGAPPPS [Agonist P323] | 0.32 nM | > 3000 nM | 0.23 nM | 0.07 nM | 16.81% | – | – | – | –
2 | Hexanoyl-HSDAVFTDNYTRLR[Aib]QVAA[Aib][Orn]YLQSIKNKRYGGPSSGAPPPS [Agonist P342] | 0.35 nM | > 3000 nM | 0.21 nM | 0.06 nM | 25.96% | – | – | – | –
3 | Hexanoyl-HSDAVFTDNYTRLR[Aib]KVAA[Aib]KYLQSIKNKRYGGPSSGAPPPS [Agonist P321] | 0.29 nM | 429 nM | 0.38 nM | 0.04 nM | – | – | – | – | –
4 | Hexanoyl-HSDAVFTDNYTR[Aib]R[Aib]QVAA[Aib]KYLQSIKNKRYGGPSSGAPPPS [Agonist P346] | 0.25 nM | > 3000 nM | 0.23 nM | 0.06 nM | 43.44% | 27.6% | – | – | –
5 | HSDAVFTDNYTXLRXQVAAXKYLQSIXNXGGPSSGAPPPS (N-terminal hexanoyl (C6); Orn at 12, 27, 29; Aib at 15, 20) [P326] | – | – | – | – | – | – | 4.53 nM | 0.09 nM | 0.21 nM
6 | Hexanoyl-HSDAVFTDNYTRL[hArg][Orn]QVAAKKYLQSIKNKRYGGPSSGAPPPS (ends and bridges not checked) [P308] | – | – | – | – | – | – | 9.74 nM | 0.09 nM | 0.26 nM
7 | Hexanoyl-HSDAVFTDNYTRLR[Aib]Q[Nle]AA[Aib]KYLQSIKNKRYGGPSSGAPPPS (ends and bridges not checked) [P325] | – | – | – | – | – | – | 1.46 nM | 0.04 nM | 0.24 nM
8 | HSDAVFTDNYTRLRXQVAAXKYLQSIXXGGPSSGAPPPS (N-terminal hexanoyl (C6); Aib at 15, 20; Orn at 27, 28) [P352] | – | – | – | – | – | – | 4.35 nM | 0.09 nM | 0.14 nM
9 | Hexanoyl-HSDAVFTDNYTRL[hArg]KQVAAKKYLQSIKNKRYGGPSSGAPPPS (ends and bridges not checked) [P305] | – | – | – | – | – | – | 3.71 nM | 0.04 nM | 0.17 nM
10 | HSDAVFTDNYTXLRXQVAAXKYLQSIXNXXYGGPSSGAPPPS (N-terminal hexanoyl (C6); hR at 12, 27, 29, 30; Aib at 15, 20) [P338] | – | – | – | – | – | – | 5.16 nM | 0.07 nM | 0.46 nM
11 | Hexanoyl-HSDAVFTDNYTRLR[Aib]QVAAK[Aib]YLQSIKNKRYGGPSSGAPPPS (ends and bridges not checked) [P264] | – | – | – | – | – | – | 4.01 nM | 0.1 nM | 0.1 nM
12 | Hexanoyl-HSDAVFTDNYTRLR[Aib]QLAAK[Aib]YLQSIKNKRYGGPSSGAPPPS (ends and bridges not checked) [P284] | – | – | – | – | – | – | 0.44 nM | 0.07 nM | 0.18 nM
13 | Hexanoyl-HSEAVFTENYTRLR[Aib]QVAA[Aib]KYLQSIKNKRYGGPSSGAPPPS (ends and bridges not checked) [P314] | – | – | – | – | – | – | 29.2 nM | 0.12 nM | 0.22 nM
14 | Hexanoyl-HSDAVFTDNYTRLR[Aib]KVAA[Aib]KYLQSIKNKRYGGPSSGAPPPS (ends and bridges not checked) [P321] | – | – | – | – | – | – | 0.11 nM | 0.04 nM | 0.38 nM
15 | Hexanoyl-HSDAVFTDQYTRLR[Aib]QVAA[Aib]KYLQSIKQKRYGGPSSGAPPPS (ends and bridges not checked) [P315] | – | – | – | – | – | – | 1.18 nM | 0.04 nM | 0.19 nM
16 | Hexanoyl-HSDAVFTDNYTRLK[Aib]QVAA[Aib]KYLQSIKNKRYGGPSSGAPPPS (ends and bridges not checked) [P318] | – | – | – | – | – | – | 9.96 nM | 0.09 nM | 0.32 nM
17 | Hexanoyl-HSDAVFTDNYTRLR[Aib]QKAA[Aib]KYLQSIKNKRYGGPSSGAPPPS (ends and bridges not checked) [P323] | – | – | – | – | – | – | 4.41 nM | 0.07 nM | 0.23 nM
18 | Hexanoyl-HSDAVFTDNYTRLR[Aib]QIAA[Aib]KYLQSIKNKRYGGPSSGAPPPS (ends and bridges not checked) [P322] | – | – | – | – | – | – | 0.5 nM | 0.04 nM | 0.22 nM
19 | Hexanoyl-HSDAVFTDNYTRL[Aib]KQVAAKKYLQSIKNKRYGGPSSGAPPPS (ends and bridges not checked) [P167] | – | – | – | – | – | – | 6.88 nM | 0.24 nM | 0.17 nM
20 | Hexanoyl-HSDAVFTDNYTRL[Aib]KQVAAQKYLQSIKNKRYGGPSSGAPPPS (ends and bridges not checked) [P243] | – | – | – | – | – | – | 157 nM | 0.79 nM | 0.28 nM
21 | Hexanoyl-HSDAVFTDNYTRLRKQVAA[Aib]KYLQSIKNKRYGGPSSGAPPPS (ends and bridges not checked) [P169] | – | – | – | – | – | – | 1.32 nM | 0.07 nM | 0.14 nM
